The target in data set [1] is Mutant VWF-A2 FRET protein with Cysteine to Glycine at positions 1669 and 1670 (CC1669-70GG).
Data set [2] concerns the target Mutant VWF-A2 FRET protein with a change at Pro1645 (P1645A).
In data set [3] the target is T1, L-VWF (Venus - VWF 1496-1670 - Cerulean - His tag FRET protein).
T1 chain: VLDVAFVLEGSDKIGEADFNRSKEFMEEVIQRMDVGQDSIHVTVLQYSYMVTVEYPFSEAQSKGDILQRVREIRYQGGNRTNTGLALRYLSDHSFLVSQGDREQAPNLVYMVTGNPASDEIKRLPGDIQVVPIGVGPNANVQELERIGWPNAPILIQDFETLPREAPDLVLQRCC

Data set [4] addresses T2, M-VWF (Venus - VWF 1530-1670 - Cerulean - His tag FRET protein).
T2 chain: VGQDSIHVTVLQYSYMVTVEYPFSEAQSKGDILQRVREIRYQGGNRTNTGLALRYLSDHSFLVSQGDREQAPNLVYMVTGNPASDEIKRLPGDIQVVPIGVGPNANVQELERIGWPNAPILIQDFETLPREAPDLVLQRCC

Data set [5] deals with T3, XS-VWF(AA) (XS-VWF with Y1605-M1606 replaced by A1605-A1606).
T3 chain: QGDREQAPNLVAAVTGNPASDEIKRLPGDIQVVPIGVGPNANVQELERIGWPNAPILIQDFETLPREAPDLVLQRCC

In data set [6] the target is T4, XS-VWF (Venus - VWF 1594-1670 - Cerulean - His tag FRET protein).
T4 chain: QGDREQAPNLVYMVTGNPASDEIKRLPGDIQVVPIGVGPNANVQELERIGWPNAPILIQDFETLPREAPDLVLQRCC

The target of data set [7] is Multimeric human plasma VWF.
Data set [8] concerns the target T5, S-VWF (Venus - VWF 1558-1670 - Cerulean - His tag FRET protein).
T5 chain: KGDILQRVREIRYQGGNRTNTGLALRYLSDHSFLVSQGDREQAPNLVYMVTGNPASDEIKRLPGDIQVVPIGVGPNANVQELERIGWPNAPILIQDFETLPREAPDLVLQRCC

The text below walks through data of patent US20130078661.

The KM is the substrate concentration at which the rate is half of its maximum. Broadly, the kcat is the number of substrate molecules converted per active site and unit of time at saturation.

B1: Recombinant human ADAMTS13 (protein)
chain: AAGGILHLELLVAVGPDVFQAHQEDTERYVLTNLNIGAELLRDPSLGAQFRVHLVKMVILTEPEGAPNITANLTSSLLSVCGWSQTINPEDDTDPGHADLVLYITRFDLELPDGNRQVRGVTQLGGACSPTWSCLITEDTGFDLGVTIAHEIGHSFGLEHDGAPGSGCGPSGHVMASDGAAPRAGLAWSPCSRRQLLSLLSAGRARCVWDPPRPQPGSAGHPPDAQPGLYYSANEQCRVAFGPKAVACTFAREHLDMCQALSCHTDPLDQSSCSRLLVPLLDGTECGVEKWCSKGRCRSLVELTPIAAVHGRWSSWGPRSPCSRSCGGGVVTRRRQCNNPRPAFGGRACVGADLQAEMCNTQACEKTQLEFMSQQCARTDGQPLRSSPGGASFYHWGAAVPHSQGDALCRHMCRAIGESFIMKRGDSFLDGTRCMPSGPREDGTLSLCVSGSCRTFGCDGRMDSQQVWDRCQVCGGDNSTCSPRKGSFTAGRAREYVTFLTVTPNLTSVYIANHRPLFTHLAVRIGGRYVVAGKMSISPNTTYPSLLEDGRVEYRVALTEDRLPRLEEIRIWGPLQEDADIQVYRRYGEEYGNLTRPDITFTYFQPKPRQAWVWAAVRGPCSVSCGAGLRWVNYSCLDQARKELVETVQCQGSQQPPAWPEACVLEPCPPYWAVGDFGPCSASCGGGLRERPVRCVEAQGSLLKTLPPARCRAGAQQPAVALETCNPQPCPARWEVSEPSSCTSAGGAGLALENETCVPGADGLEAPVTEGPGSVDEKLPAPEPCVGMSCPPGWGHLDATSAGEKAPSPWGSIRTGAQAAHVWTPAAGSCSVSCGRGLMELRFLCMDSALRVPVQEELCGLASKPGSRREVCQAVPCPARWQYKLAACSVSCGRGVVRRILYCARAHGEDDGEEILLDTQCQGLPRPEPQEACSLEPCPPRWKVMSLGPCSASCGLGTARRSVACVQLDQGQDVEVDEAACAALVRPEASVPCLIADCTYRWHVGTWMECSVSCGDGIQRRRDTCLGPQAQAPVPADFCQHLPKPVTVRGCWAGPCVGQGTPSLVPHEEAAAPGRTTATPAGASLEWSQARGLLFSPAPQPRRLLPGPQENSVQSSACGRQHLEPTGTIDMRGPGQADCAVAIGRPLGEVVTLRVLESSLNCSAGDMLLLWGRLTWRKMCRKLLDMTFSSKTNTLVVRQRCGRPGGGVLLRYGSQLAPETFYRECDMQLFGPWGEIVSPSLSPATSNAGGCRLFINVAPHARIAIHALATNMGAGTEGANASYILIRDTHSLRTTAFHGQQVLYWESESSQAEMEFSEGFLKAQASLRGQYWTLQSWVPEMQDPQSWKGKEGT
On to B1, for which the “cleavage in 1M urea, western blot” value in data set [1] was “substitution of Cysteine by Glycine at positions 1669 and 1670 enhances VWF A2 domain proteolysis”. Further, the “cleavage in 1M urea, western blot” value in data set [2] is given as “changes in the Pro1645 site enhances VWF cleavage even in the presence of low concentrations of urea that are insufficient to cleave the wild-type protein”. Moreover, in data set [3], the “FRET ratio after 1 h with ADAMTS13, no denaturant” value (“FRET ratio … no denaturant” below) is on record as “There was very little change in the FRET ratio of ... L-VWF”; the “cleavage at 2M urea after pre-denaturation with 4M urea” value was >90% cleavage of L-VWF was observed at 2M urea upon inclusion of the pre-denaturation step; the “extent of cleavage, no urea” value is “In the absence of urea, the extent of cleavage of both L- and M-VWF was 20%”; the “proteolysis at 1.6M urea” value was “Increasing urea concentration to 1.6M resulted in 30% proteolysis”. For the same protein, in data set [4], the “FRET ratio … no denaturant” value is “There was very little change in the FRET ratio of M-VWF”; the “extent of cleavage, no urea” value is “In the absence of urea, the extent of cleavage of both L- and M-VWF was 20%”; the “proteolysis at 1.6M urea” value is “Increasing urea concentration to 1.6M resulted in 30% proteolysis”. In data set [5], the “FRET ratio … no denaturant” value is on record as “There was very little change in the FRET ratio of ... XS-VWF(AA)” and the “cleavage, western blot with anti-his pAb” value is recorded as “XS-VWF but not XS-VWF(AA) was cleaved by recombinant ADAMTS13”. Further, in data set [6], the “FRET ratio … no denaturant” value was “FRET ratio increased from 0.78 to 1.73 for XS-VWF”; the “cleavage, western blot with anti-his pAb” value is on record as “XS-VWF but not XS-VWF(AA) was cleaved by recombinant ADAMTS13”; the “extent of cleavage (FRET ratio and western blot), varying urea” value is “Complete cleavage of XS-VWF and S-VWF was observed at urea concentrations <2.8M”. Further, in data set [7], the “cleavage after pre-denaturation with 4M urea, western blot” value was “Proteolysis was however complete at urea>2.4M, provided a pre-denaturation step was included”; the “cleavage without pre-denaturation, western blot” value is “multimeric VWF was also not fully cleaved when the protein was incubated with varying urea concentrations and ADAMTS13”. Moreover, in data set [8], the “FRET ratio … no denaturant” value is listed as “from 1.24 to 1.84 for S-VWF”; the “extent of cleavage (FRET ratio and western blot), varying urea” value is “Complete cleavage of XS-VWF and S-VWF was observed at urea concentrations <2.8M”.

B2: ADAMTS13 in human plasma (protein)
chain: AAGGILHLELLVAVGPDVFQAHQEDTERYVLTNLNIGAELLRDPSLGAQFRVHLVKMVILTEPEGAPNITANLTSSLLSVCGWSQTINPEDDTDPGHADLVLYITRFDLELPDGNRQVRGVTQLGGACSPTWSCLITEDTGFDLGVTIAHEIGHSFGLEHDGAPGSGCGPSGHVMASDGAAPRAGLAWSPCSRRQLLSLLSAGRARCVWDPPRPQPGSAGHPPDAQPGLYYSANEQCRVAFGPKAVACTFAREHLDMCQALSCHTDPLDQSSCSRLLVPLLDGTECGVEKWCSKGRCRSLVELTPIAAVHGRWSSWGPRSPCSRSCGGGVVTRRRQCNNPRPAFGGRACVGADLQAEMCNTQACEKTQLEFMSQQCARTDGQPLRSSPGGASFYHWGAAVPHSQGDALCRHMCRAIGESFIMKRGDSFLDGTRCMPSGPREDGTLSLCVSGSCRTFGCDGRMDSQQVWDRCQVCGGDNSTCSPRKGSFTAGRAREYVTFLTVTPNLTSVYIANHRPLFTHLAVRIGGRYVVAGKMSISPNTTYPSLLEDGRVEYRVALTEDRLPRLEEIRIWGPLQEDADIQVYRRYGEEYGNLTRPDITFTYFQPKPRQAWVWAAVRGPCSVSCGAGLRWVNYSCLDQARKELVETVQCQGSQQPPAWPEACVLEPCPPYWAVGDFGPCSASCGGGLRERPVRCVEAQGSLLKTLPPARCRAGAQQPAVALETCNPQPCPARWEVSEPSSCTSAGGAGLALENETCVPGADGLEAPVTEGPGSVDEKLPAPEPCVGMSCPPGWGHLDATSAGEKAPSPWGSIRTGAQAAHVWTPAAGSCSVSCGRGLMELRFLCMDSALRVPVQEELCGLASKPGSRREVCQAVPCPARWQYKLAACSVSCGRGVVRRILYCARAHGEDDGEEILLDTQCQGLPRPEPQEACSLEPCPPRWKVMSLGPCSASCGLGTARRSVACVQLDQGQDVEVDEAACAALVRPEASVPCLIADCTYRWHVGTWMECSVSCGDGIQRRRDTCLGPQAQAPVPADFCQHLPKPVTVRGCWAGPCVGQGTPSLVPHEEAAAPGRTTATPAGASLEWSQARGLLFSPAPQPRRLLPGPQENSVQSSACGRQHLEPTGTIDMRGPGQADCAVAIGRPLGEVVTLRVLESSLNCSAGDMLLLWGRLTWRKMCRKLLDMTFSSKTNTLVVRQRCGRPGGGVLLRYGSQLAPETFYRECDMQLFGPWGEIVSPSLSPATSNAGGCRLFINVAPHARIAIHALATNMGAGTEGANASYILIRDTHSLRTTAFHGQQVLYWESESSQAEMEFSEGFLKAQASLRGQYWTLQSWVPEMQDPQSWKGKEGT
For the protein B2, the “cleavage by FRET, 20% human plasma, 2 hours, 2M urea” value in data set [1] and in data set [2] was “higher cleavage of mutant VWF proteins compared to the wild-type molecule upon addition of low concentrations of urea” in each case. Besides, the KM in data set [6] is 4.6 µM and KM=4 µM; in data set [8] it was 1.8 µM. Besides, the kcat turned out to be 0.747 s⁻¹ in data set [6] and 0.295 s⁻¹ in data set [8].
